Blank lines part the entries; values can stand above or below the binder they belong to.
How the values were obtained:
recombinant human IL-6 = molecular target: T1, recombinant human IL-6 (human, UniProt P05231 30-212); assay: Biacore, Fab lysate over IL-6 chip, 25 C
T1 construct: bought protein; also called interleukin-6
Protocol: Fab libraries were constructed containing random single point mutations for all 71 CDR positions, excluding substitutions for Cys, Met and Asn due to the chemical liabilities associated with these amino acids. Small-scale expression in 96 well plates format was utilized for screening the Fab libraries. E. coli colonies (TG1 cells, Zymo Research) containing randomized single point mutations were picked into 96 well plates (1.5 mL) and grown overnight at 30° C. in LB Amp+2% glucose. A separate 96 well plate was created on the following day by removing 100 μL of culture and adding 100 μL of 30% glycerol, then stored at −80° C. The remaining culture was spun down for 20 min and later resuspended in 1.5 mL of LB Amp containing 1 mM IPTG for induction of protein expression at 30° C. After 5 hours, cells were spun down, resuspended in 500 μL of HBS-EP+ buffer and lysed by one freeze/thaw cycle. Lysates were centrifuged for 30 minutes and vacuum filtered (200 μL) into round bottom 96 well plates for Biacore analysis.
Three ranges of antigen density (100-150 RU, 300-400 RU, 400-600 RU) were obtained by using variable flow times for each chip channel, later blocked with ethanolamine. Supernatants of the 96-well filtered culture lysates were injected at […] for 120 seconds. Fitting of dissociation curves (300 seconds) to single exponential decay curve was used for the determination of dissociation rates (koff). Chip surfaces were regenerated with 10 mM Glycine pH 1.7 solution injected at 50 μL/min during 60 seconds after every cycle of sample binding and dissociation.

human IL-6 [1] = molecular target: T2, human IL-6 (human, UniProt P05231 30-212); assay: SPR (Biacore T200), antibody from cell supernatant captured on Protein A, IL-6 flowed over, 37 C
T2 construct: also called interleukin-6

human IL-6 [2] = molecular target: T2, human IL-6; assay: SPR (Biacore T200), purified antibody captured on Protein A, IL-6 flowed over, 37 C
Protocol: Antibodies were captured on a Protein A chip (GE) by injecting 1:20 cell supernatant dilutions at 10 μL/min for 60 seconds. […] The sensor chip was regenerated by a 60 seconds injection of 10 mM Glycine pH 1.7 at the flow rate of […]. […] For this setup, 1 μg/mL of purified antibody was injected over a Protein A chip at 10 μL/min for 25 seconds. […] The sensor chip was regenerated by a 60 seconds injection of 10 mM Glycine pH 1.7 at flow rate of 50 μL/min. Data analysis for supernatant and purified samples were performed using BIAevaluation software (GE). All sensorgrams were double reference subtracted and fit using a 1:1 Langmuir binding model.

T2 sequence (P05231 30-212 limits assumed): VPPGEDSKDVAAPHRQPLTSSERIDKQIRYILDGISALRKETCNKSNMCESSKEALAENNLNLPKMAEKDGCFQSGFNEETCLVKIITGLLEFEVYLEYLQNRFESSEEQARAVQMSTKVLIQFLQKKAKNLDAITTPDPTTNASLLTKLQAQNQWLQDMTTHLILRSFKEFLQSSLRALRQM
T1 sequence (P05231 30-212 limits assumed): as above

B1: anti-IL-6 Fab, heavy chain A105K (Fab, V domains shown)
VH: EVQLVESGGGLVQPGGSLRLSCAASGFTFSPFAMSWVRQAPGKGLEWVAKISPGGSWTYYSDTVTGRFTFSLDTSKSTAYLQMNSLRAEDTAVYYCARQLWGYYKLDIWGQGTLVTVSS
VL: DIQLTQSPSSLSASVGDRVTITCSASISVSYMYWYQQKPGKAPKLLIYDMSNLASGVPSRFSGSGSGTDFTLTISSLQPEDFATYYCMQWSGYPYTFGQGTKVEIK
notes: built as m22 plus the named change
koff (recombinant human IL-6): 0.00401 s⁻¹

B3: anti-IL-6 Fab, heavy chain S30V (Fab, V domains shown)
VH: EVQLVESGGGLVQPGGSLRLSCAASGFTFVPFAMSWVRQAPGKGLEWVAKISPGGSWTYYSDTVTGRFTFSLDTSKSTAYLQMNSLRAEDTAVYYCARQLWGYYALDIWGQGTLVTVSS
VL: DIQLTQSPSSLSASVGDRVTITCSASISVSYMYWYQQKPGKAPKLLIYDMSNLASGVPSRFSGSGSGTDFTLTISSLQPEDFATYYCMQWSGYPYTFGQGTKVEIK
notes: as for B1
koff (recombinant human IL-6): 0.00352 s⁻¹

B4: anti-IL-6 Fab, heavy chain S30W (Fab, V domains shown)
VH: EVQLVESGGGLVQPGGSLRLSCAASGFTFWPFAMSWVRQAPGKGLEWVAKISPGGSWTYYSDTVTGRFTFSLDTSKSTAYLQMNSLRAEDTAVYYCARQLWGYYALDIWGQGTLVTVSS
VL: DIQLTQSPSSLSASVGDRVTITCSASISVSYMYWYQQKPGKAPKLLIYDMSNLASGVPSRFSGSGSGTDFTLTISSLQPEDFATYYCMQWSGYPYTFGQGTKVEIK
notes: as for B1
koff (recombinant human IL-6): 0.00869 s⁻¹

B5: anti-IL-6 Fab, heavy chain Q99A (Fab, V domains shown)
VH: EVQLVESGGGLVQPGGSLRLSCAASGFTFSPFAMSWVRQAPGKGLEWVAKISPGGSWTYYSDTVTGRFTFSLDTSKSTAYLQMNSLRAEDTAVYYCARALWGYYALDIWGQGTLVTVSS
VL: DIQLTQSPSSLSASVGDRVTITCSASISVSYMYWYQQKPGKAPKLLIYDMSNLASGVPSRFSGSGSGTDFTLTISSLQPEDFATYYCMQWSGYPYTFGQGTKVEIK
notes: as for B1
koff (recombinant human IL-6): 0.00385 s⁻¹

B6: anti-IL-6 Fab, heavy chain S30G (Fab, V domains shown)
VH: EVQLVESGGGLVQPGGSLRLSCAASGFTFGPFAMSWVRQAPGKGLEWVAKISPGGSWTYYSDTVTGRFTFSLDTSKSTAYLQMNSLRAEDTAVYYCARQLWGYYALDIWGQGTLVTVSS
VL: DIQLTQSPSSLSASVGDRVTITCSASISVSYMYWYQQKPGKAPKLLIYDMSNLASGVPSRFSGSGSGTDFTLTISSLQPEDFATYYCMQWSGYPYTFGQGTKVEIK
notes: as for B1
koff (recombinant human IL-6): 0.00977 s⁻¹

B8: anti-IL-6 Fab, light chain V29L (Fab, V domains shown)
VH: EVQLVESGGGLVQPGGSLRLSCAASGFTFSPFAMSWVRQAPGKGLEWVAKISPGGSWTYYSDTVTGRFTFSLDTSKSTAYLQMNSLRAEDTAVYYCARQLWGYYALDIWGQGTLVTVSS
VL: DIQLTQSPSSLSASVGDRVTITCSASISLSYMYWYQQKPGKAPKLLIYDMSNLASGVPSRFSGSGSGTDFTLTISSLQPEDFATYYCMQWSGYPYTFGQGTKVEIK
notes: as for B1
koff (recombinant human IL-6): 0.00943 s⁻¹

Second part, the binder after the results:

Kd (human IL-6 [1]): 185 pM | koff (human IL-6 [1]): 0.000461 s⁻¹ | kon (human IL-6 [1]): 2.49e+06 M⁻¹ s⁻¹ | Kd (human IL-6 [2]): 161 pM | koff (human IL-6 [2]): 0.000235 s⁻¹ | kon (human IL-6 [2]): 1.46e+06 M⁻¹ s⁻¹
B2: anti-IL-6 antibody, heavy chain T63K, G66D / light chain WT (antibody, human IgG1, V domains shown)
VH: EVQLVESGGGLVQPGGSLRLSCAASGFTFSPFAMSWVRQAPGKGLEWVAKISPGGSWTYYSDKVTDRFTFSLDTSKSTAYLQMNSLRAEDTAVYYCARQLWGYYALDIWGQGTLVTVSS
VL: DIQLTQSPSSLSASVGDRVTITCSASISVSYMYWYQQKPGKAPKLLIYDMSNLASGVPSRFSGSGSGTDFTLTISSLQPEDFATYYCMQWSGYPYTFGQGTKVEIK
notes: Derived as m2; Engineered human IgG1

Kd (human IL-6 [1]): 381 pM | koff (human IL-6 [1]): 0.000255 s⁻¹ | kon (human IL-6 [1]): 670000 M⁻¹ s⁻¹ | Kd (human IL-6 [2]): 226 pM | koff (human IL-6 [2]): 0.000128 s⁻¹ | kon (human IL-6 [2]): 565000 M⁻¹ s⁻¹
B7: anti-IL-6 antibody, heavy chain WT / light chain WT (antibody, human IgG1, V domains shown)
VH: EVQLVESGGGLVQPGGSLRLSCAASGFTFSPFAMSWVRQAPGKGLEWVAKISPGGSWTYYSDTVTGRFTFSLDTSKSTAYLQMNSLRAEDTAVYYCARQLWGYYALDIWGQGTLVTVSS
VL: DIQLTQSPSSLSASVGDRVTITCSASISVSYMYWYQQKPGKAPKLLIYDMSNLASGVPSRFSGSGSGTDFTLTISSLQPEDFATYYCMQWSGYPYTFGQGTKVEIK
notes: Full antibody on an engineered human IgG1 framework, Fc with L234A, L235A, G237A and L443C (EU numbering), expressed in Expi293 cells; also called wild-type; parent molecule
